Common to all, as to assay: MST
Assay [1] has as its target Enhanced GFP with C-terminal (GGGGS)3GG linker and RQLL.
Assay [2] addresses Sortilin extracellular domain (ECD) (M1-S756) C-terminally fused to 6His (UniProt Q99523).
For assay [3], the target named is T1, Sortilin extracellular domain (ECD) (M1-S756) C-terminally fused to 6His (UniProt Q99523 78-756).
T1 sequence: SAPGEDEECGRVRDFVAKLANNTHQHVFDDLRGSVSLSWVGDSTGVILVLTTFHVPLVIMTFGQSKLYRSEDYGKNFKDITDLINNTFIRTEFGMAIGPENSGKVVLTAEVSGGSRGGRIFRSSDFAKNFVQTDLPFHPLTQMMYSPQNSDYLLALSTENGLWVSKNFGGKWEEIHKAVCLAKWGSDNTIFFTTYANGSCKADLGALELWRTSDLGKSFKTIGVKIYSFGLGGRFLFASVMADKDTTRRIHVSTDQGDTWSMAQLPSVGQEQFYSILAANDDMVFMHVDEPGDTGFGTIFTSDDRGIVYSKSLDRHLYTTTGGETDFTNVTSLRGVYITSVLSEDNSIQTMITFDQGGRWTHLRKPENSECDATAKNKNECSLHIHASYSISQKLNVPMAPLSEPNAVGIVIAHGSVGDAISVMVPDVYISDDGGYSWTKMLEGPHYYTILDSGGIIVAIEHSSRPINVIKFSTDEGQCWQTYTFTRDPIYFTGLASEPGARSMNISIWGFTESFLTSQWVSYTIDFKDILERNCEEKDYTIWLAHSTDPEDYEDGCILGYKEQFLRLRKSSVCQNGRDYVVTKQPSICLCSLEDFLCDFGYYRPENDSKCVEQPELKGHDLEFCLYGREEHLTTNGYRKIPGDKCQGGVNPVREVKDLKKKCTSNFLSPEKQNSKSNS

As a reminder, the Kd is the concentration at which binding is half-saturated. For “Sortilin extracellular domain (ECD) (M1-S756) C-terminally fused to 6His (from UniProt Q99523 78-756) (domain or fragment)”, in assay [1], the Kd turned out to be 74 nM.
As to “TNFa (V76-L233) with C-terminal (GGGGS)3GG linker and RQLL”, the Kd in assay [2] is 86.5 nM.
“TNFa (V76-L233) without RQLL (natural protein)” displayed an equilibrium dissociation constant (Kd) in assay [2] greater than 200000 nM.

B1: progranulin N-terminally tagged with the HiBiT peptide (ligand)
chain: TRCPDGQFCPVACCLDPGGASYSCCRPLLDKWPTTLSRHLGGPCQVDAHCSAGHSCIFTVSGTSSCCPFPEAVACGDGHHCCPRGFHCSADGRSCFQRSGNNSVGAIQCPDSQFECPDFSTCCVMVDGSWGCCPMPQASCCEDRVHCCPHGAFCDLVHTRCITPTGTHPLAKKLPAQRTNRAVALSSSVMCPDARSRCPDGSTCCELPSGKYGCCPMPNATCCSDHLHCCPQDTVCDLIQSKCLSKENATTDLLTKLPAHTVGDVKCDMEVSCPDGYTCCRLQSGAWGCCPFTQAVCCEDHIHCCPAGFTCDTQKGTCEQGPHQVPWMEKAPAHLSLPDPQALKRDVPCDNVSSCPSSDTCCQLTSGEWGCCPIPEAVCCSDHQHCCPQGYTCVAEGQCQRGSEIVAGLEKMPARRASLSHPRDIGCDQHTSCPVGQTCCPSLGGSWACCQLPHAVCCEDRQHCCPAGYTCNVKARSCEKEVVSAQPATFLARSPHVGVKDVECGEGHFCHDNQTCCRDNRQGWACCPYRQGVCCADRRHCCPAGFRCAARGTKCLRREAPRWDAPLRDPALRQLL
Turning to B1, the Kd in assay [3] is 3.5 ± 1.6 nM.

Source of the values: publication doi:10.1101/2025.03.03.641244 (bioRxiv, 2025).
